Source: the supplement of paper PMC9112550, “Optimization of the antimicrobial peptide Bac7 by deep mutational scanning” (BMC Biology, 2022)

Tested on: Escherichia coli TOP10
Experiment: shrunken log2 fold change of peptide-encoding DNA abundance (4.5 h post-induction vs induction); higher = less antimicrobial activity (less host growth inhibition)
Details: time post-induction: 4.5 h; library: site-saturation at positions 5, 18, 19, 20
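Further: peptides expressed intracellularly from a pBAD plasmid library in pooled LB shake-flask culture, induced with 0.3% L-arabinose, DNA abundance read by NGS, three biological replicates, DESeq2 with apeglm shrinkage.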

| Sequence | shrunken log2 fold change |
| --- | --- |
| RRIRMRPPRLPRPRPRPKEDPRP | 1.82 |
| RRIRARPPRLPRPRPRPGMLPRP | 0.334 |
| RRIRYRPPRLPRPRPRPIHHPRP | -1.62 |
| RRIRFRPPRLPRPRPRPRPRPRP | 1.65 |
| RRIRGRPPRLPRPRPRPMHPPRP | -0.104 |
| RRIRDRPPRLPRPRPRPQTMPRP | -0.067 |
| RRIRERPPRLPRPRPRPNLEPRP | -0.228 |
| RRIRLRPPRLPRPRPRPYHEPRP | -1.6 |
| RRIRYRPPRLPRPRPRPSALPRP | -0.638 |
| RRIRWRPPRLPRPRPRPIIRPRP | -0.00231 |
| RRIRDRPPRLPRPRPRPCRFPRP | -0.00146 |
| RRIRNRPPRLPRPRPRPKPCPRP | 0.159 |
| RRIRWRPPRLPRPRPRPHLYPRP | -0.125 |
| RRIRQRPPRLPRPRPRPQCQPRP | 0.05 |
| RRIRRRPPRLPRPRPRPPLEPRP | 0.739 |
| RRIRNRPPRLPRPRPRPSHSPRP | -0.182 |
| RRIRERPPRLPRPRPRPCGLPRP | -0.0273 |
| RRIRSRPPRLPRPRPRPSMWPRP | 0.149 |
| RRIRMRPPRLPRPRPRPPWRPRP | 1.34 |
| RRIRCRPPRLPRPRPRPNFSPRP | -0.382 |
| RRIRPRPPRLPRPRPRPGEYPRP | -0.207 |
| RRIRCRPPRLPRPRPRPLTWPRP | -0.16 |
| RRIRGRPPRLPRPRPRPRMYPRP | 0.0954 |
| RRIRFRPPRLPRPRPRPDFIPRP | -0.395 |
| RRIRHRPPRLPRPRPRPHAIPRP | -0.251 |

| Sequence | shrunken log2 fold change |
| --- | --- |
| RRIRVRPPRLPRPRPRPHHMPRP | -0.26 |
| RRIRARPPRLPRPRPRPGLLPRP | 0.547 |
| RRIRNRPPRLPRPRPRPEYRPRP | -0.159 |
| RRIRVRPPRLPRPRPRPEPKPRP | 0.13 |
| RRIRDRPPRLPRPRPRPTNYPRP | -0.48 |
| RRIRWRPPRLPRPRPRPKIAPRP | 0.41 |
| RRIRKRPPRLPRPRPRPIMSPRP | -0.00757 |
| RRIRERPPRLPRPRPRPFRGPRP | -0.11 |
| RRIRCRPPRLPRPRPRPEQIPRP | 0.259 |
| RRIRPRPPRLPRPRPRPSHFPRP | -0.399 |
| RRIRMRPPRLPRPRPRPYQIPRP | -0.0607 |
| RRIRNRPPRLPRPRPRPFIVPRP | -0.279 |
| RRIRIRPPRLPRPRPRPHPNPRP | -0.404 |
| RRIRTRPPRLPRPRPRPLPLPRP | -0.107 |
| RRIRHRPPRLPRPRPRPRTVPRP | 0.126 |
| RRIRWRPPRLPRPRPRPHWVPRP | 0.0436 |
| RRIRPRPPRLPRPRPRPVKQPRP | 0.169 |
| RRIRPRPPRLPRPRPRPFCLPRP | -0.0969 |
| RRIRYRPPRLPRPRPRPIKMPRP | -0.666 |
| RRIRKRPPRLPRPRPRPRCPPRP | 0.52 |
| RRIRVRPPRLPRPRPRPGTSPRP | -0.073 |
| RRIRYRPPRLPRPRPRPRVNPRP | 0.00364 |
| RRIRSRPPRLPRPRPRPHCPPRP | -0.0154 |
| RRIRFRPPRLPRPRPRPLQDPRP | 0.118 |
| RRIRKRPPRLPRPRPRPDTYPRP | -0.0205 |

| Sequence | shrunken log2 fold change |
| --- | --- |
| RRIRCRPPRLPRPRPRPEKTPRP | -0.0706 |
| RRIRNRPPRLPRPRPRPFNIPRP | 0.0411 |
| RRIRWRPPRLPRPRPRPHQIPRP | -0.154 |
| RRIRMRPPRLPRPRPRPWGMPRP | 0.187 |
| RRIRNRPPRLPRPRPRPRGEPRP | -0.029 |
| RRIRCRPPRLPRPRPRPWAEPRP | -0.136 |
| RRIRLRPPRLPRPRPRPMYYPRP | -0.0423 |
| RRIRWRPPRLPRPRPRPIWDPRP | 0.214 |
| RRIRLRPPRLPRPRPRPLTRPRP | 1.93 |
| RRIRKRPPRLPRPRPRPDPDPRP | 0.431 |
| RRIRTRPPRLPRPRPRPLFIPRP | -0.746 |
| RRIRHRPPRLPRPRPRPDIQPRP | -0.0379 |
| RRIRCRPPRLPRPRPRPYHQPRP | -0.819 |
| RRIRERPPRLPRPRPRPDDTPRP | -0.0925 |
| RRIRPRPPRLPRPRPRPRCMPRP | 0.0856 |
| RRIRPRPPRLPRPRPRPMPVPRP | 0.0347 |
| RRIRDRPPRLPRPRPRPLKIPRP | -0.297 |
| RRIRGRPPRLPRPRPRPCFLPRP | 0.0171 |
| RRIRFRPPRLPRPRPRPQQMPRP | -0.0245 |
| RRIRLRPPRLPRPRPRPCNAPRP | -0.129 |
| RRIRERPPRLPRPRPRPNMYPRP | -0.976 |
| RRIRWRPPRLPRPRPRPDWMPRP | 0.212 |
| RRIRMRPPRLPRPRPRPFTIPRP | -0.386 |
| RRIRPRPPRLPRPRPRPFSGPRP | -0.478 |
| RRIRLRPPRLPRPRPRPKSFPRP | -0.0686 |
